Article PMC11672532

Biological target: c-Met ((A549 lung cancer cells)) (UniProt P08581)
Test: flow cytometry on cells
Settings: 5' and 3' cholesterol on ASO strand; Intact A549 or HeLa cells, FAM-labeled DNA, flow cytometry (30 min in Fig S8); binding buffer and temperature not given in the material

Sequence of c-Met ((A549 lung cancer cells)) (P08581 25-1390): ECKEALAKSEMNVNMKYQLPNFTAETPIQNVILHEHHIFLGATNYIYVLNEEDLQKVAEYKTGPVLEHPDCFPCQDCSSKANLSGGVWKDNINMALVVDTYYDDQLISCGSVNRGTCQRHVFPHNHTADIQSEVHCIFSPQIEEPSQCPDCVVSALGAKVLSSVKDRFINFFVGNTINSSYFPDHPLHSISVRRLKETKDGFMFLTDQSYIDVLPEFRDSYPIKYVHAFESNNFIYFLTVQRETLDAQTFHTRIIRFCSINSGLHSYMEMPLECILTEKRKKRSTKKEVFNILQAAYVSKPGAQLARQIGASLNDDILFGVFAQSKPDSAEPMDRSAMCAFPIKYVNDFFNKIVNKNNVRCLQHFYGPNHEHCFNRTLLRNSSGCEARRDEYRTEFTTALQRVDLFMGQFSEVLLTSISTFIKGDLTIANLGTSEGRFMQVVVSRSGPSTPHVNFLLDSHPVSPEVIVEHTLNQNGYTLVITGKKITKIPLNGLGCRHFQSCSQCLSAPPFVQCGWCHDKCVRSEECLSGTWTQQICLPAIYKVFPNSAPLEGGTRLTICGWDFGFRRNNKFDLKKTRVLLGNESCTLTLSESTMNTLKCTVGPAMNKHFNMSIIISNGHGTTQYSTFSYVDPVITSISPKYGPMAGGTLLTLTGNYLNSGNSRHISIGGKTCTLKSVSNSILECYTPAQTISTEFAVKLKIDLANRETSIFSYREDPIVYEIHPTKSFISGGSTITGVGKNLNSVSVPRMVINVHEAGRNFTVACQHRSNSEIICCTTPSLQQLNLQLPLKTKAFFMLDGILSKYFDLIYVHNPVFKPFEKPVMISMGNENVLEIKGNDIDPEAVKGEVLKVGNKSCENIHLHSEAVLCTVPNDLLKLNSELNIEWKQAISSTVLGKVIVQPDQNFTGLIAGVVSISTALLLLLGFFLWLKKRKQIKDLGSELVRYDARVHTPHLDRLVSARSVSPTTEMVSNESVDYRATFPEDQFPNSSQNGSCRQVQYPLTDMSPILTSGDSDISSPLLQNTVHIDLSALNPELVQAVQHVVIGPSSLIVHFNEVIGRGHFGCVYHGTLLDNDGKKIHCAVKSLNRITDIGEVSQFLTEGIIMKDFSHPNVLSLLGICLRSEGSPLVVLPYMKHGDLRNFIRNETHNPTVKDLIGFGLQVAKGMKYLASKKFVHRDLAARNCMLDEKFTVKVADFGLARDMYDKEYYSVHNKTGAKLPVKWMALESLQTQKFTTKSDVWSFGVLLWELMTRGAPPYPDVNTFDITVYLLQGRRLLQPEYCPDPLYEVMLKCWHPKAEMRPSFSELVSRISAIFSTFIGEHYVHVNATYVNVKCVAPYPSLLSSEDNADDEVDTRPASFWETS

TGGATGGTAGCTCGGTCGGGGTGGGTGGGTTGGCAAGTCT / GGTGTCACAGGCGGGACCCCCGACCGA / GTCCCGCCTGTGACACCTCCCGCCTGTGACATGCATTTTTTTTCCCGCCTGTGACATGCATTGTCCCGCCTGTGACACC / CAACCCACCCGGTGTCACAGGCGGGAC [NT-Ch2-Apt (DNA nanotweezer)]
binding signal (fold (A549 / HeLa fluorescence)): 2.5
